# Measured values from patent US20080219970A1 (published 2008).
# T1: factor VIIa (UniProt P08709 61-466)
# T1 construct: also called fVIIa; FVIIa
# T1 sequence (looked up): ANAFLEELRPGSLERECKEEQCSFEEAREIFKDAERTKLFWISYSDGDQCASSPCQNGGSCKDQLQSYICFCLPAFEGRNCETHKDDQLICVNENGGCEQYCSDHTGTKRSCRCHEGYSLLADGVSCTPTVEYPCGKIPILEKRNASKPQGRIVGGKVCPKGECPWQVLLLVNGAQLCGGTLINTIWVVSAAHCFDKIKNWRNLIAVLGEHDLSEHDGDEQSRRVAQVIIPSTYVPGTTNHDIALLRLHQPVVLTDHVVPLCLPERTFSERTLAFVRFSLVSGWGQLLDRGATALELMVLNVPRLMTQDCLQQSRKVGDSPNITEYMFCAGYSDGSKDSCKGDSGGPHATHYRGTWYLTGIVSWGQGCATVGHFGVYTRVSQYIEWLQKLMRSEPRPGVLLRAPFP
# T2: high molecular weight kininogen (UniProt P01042 19-644)
# T2 construct: also called HMWK
# T2 sequence (looked up): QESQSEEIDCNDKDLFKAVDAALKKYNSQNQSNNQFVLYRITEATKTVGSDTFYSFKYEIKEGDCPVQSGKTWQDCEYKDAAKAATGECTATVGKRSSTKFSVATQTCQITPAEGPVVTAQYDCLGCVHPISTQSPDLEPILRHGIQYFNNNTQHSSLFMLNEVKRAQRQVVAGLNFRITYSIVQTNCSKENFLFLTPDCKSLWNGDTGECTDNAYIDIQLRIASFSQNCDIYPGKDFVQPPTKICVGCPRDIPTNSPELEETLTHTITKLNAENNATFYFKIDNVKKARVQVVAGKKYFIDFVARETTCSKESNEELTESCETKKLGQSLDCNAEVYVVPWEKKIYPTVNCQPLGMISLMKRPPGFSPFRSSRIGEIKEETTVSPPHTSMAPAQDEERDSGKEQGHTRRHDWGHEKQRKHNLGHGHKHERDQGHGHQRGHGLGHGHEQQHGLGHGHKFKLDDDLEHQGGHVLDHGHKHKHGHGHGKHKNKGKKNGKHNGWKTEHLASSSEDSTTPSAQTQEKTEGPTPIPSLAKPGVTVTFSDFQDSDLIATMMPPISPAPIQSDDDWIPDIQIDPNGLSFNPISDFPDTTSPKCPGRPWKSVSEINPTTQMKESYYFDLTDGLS
# B1: Ir-CPI (Ixodes ricinus Contact Phase Inhibitor), recombinant, without its peptide signal (other)
# chain: ANHKGRGRPAKCKLPPDDGPCRARIPSYYFDRKTKTCKEFMYGGCEGNENNFENITTCQEECRAKKV
# notes: Immobilized on a CM5 chip by amine coupling for SPR; also called recombinant Ir-CPI
# Tests used:
# [1] = target: plasminogen (UniProt P00747 20-810, limits assumed); test: SPR (BIAcore 3000), Ir-CPI immobilized on CM5 chip, factor injected as analyte
# plasminogen, sequence (P00747 20-810 limits assumed): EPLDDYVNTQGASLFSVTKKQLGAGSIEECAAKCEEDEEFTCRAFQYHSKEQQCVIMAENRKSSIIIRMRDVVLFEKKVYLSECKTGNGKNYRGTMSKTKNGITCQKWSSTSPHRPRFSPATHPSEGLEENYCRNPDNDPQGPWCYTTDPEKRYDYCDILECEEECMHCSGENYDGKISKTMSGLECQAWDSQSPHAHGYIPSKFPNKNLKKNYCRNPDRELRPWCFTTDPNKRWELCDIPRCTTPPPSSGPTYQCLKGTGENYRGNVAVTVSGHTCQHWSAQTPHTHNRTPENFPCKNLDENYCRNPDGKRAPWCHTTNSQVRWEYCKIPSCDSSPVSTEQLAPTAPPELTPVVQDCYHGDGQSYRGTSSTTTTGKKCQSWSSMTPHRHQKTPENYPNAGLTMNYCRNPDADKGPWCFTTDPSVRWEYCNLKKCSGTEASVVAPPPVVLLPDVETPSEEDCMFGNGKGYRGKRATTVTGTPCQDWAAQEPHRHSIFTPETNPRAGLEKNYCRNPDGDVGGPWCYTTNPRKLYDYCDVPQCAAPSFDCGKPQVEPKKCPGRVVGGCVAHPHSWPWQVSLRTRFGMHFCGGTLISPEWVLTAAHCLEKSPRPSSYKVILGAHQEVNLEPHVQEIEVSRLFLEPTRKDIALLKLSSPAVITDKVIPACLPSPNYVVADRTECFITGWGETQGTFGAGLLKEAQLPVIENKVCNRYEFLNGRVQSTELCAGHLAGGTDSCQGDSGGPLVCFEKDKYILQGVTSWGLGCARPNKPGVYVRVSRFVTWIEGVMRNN
# Procedure: (§1) The interaction between Ir-CPI and coagulation or fibrinolytic factors was monitored using a BIAcore 3000 instrument (BIAcore AB, Sweden). Ir-CPI (15 μM) was immobilized on the surface of a CM5 sensor chip in 10 mM acetate buffer, pH 5.0, by the amine coupling procedure according to the manufacturer's instructions. 1500 resonance units (RU) of immobilized Ir-CPI were used for the assay. To subtract the non-specific component from the apparent binding response, a blank flow cell was prepared using the same immobilizing procedure without Ir-CPI. Binding analyses were carried out using HBS buffer (HEPES10 mM, NaCl 150 mM, EDTA 3 mM; pH 7.4 with 0.005% surfactant P20) as running buffer at 25° C. 100 μl of each analyte (100 nM) was injected on the sensor chip at a flow rate of 70 μl/min. Association was monitored during an 84 s injection of analyte. Dissociation was monitored for 3 min after return to the running buffer.
# (§2) The ability of Ir-CPI to bind a (co)factor of coagulation or fibrinolysis was evaluated by surface plasmon resonance. […] Moreover, the kinetics of interaction between Ir-CPI and the four target factors (XIIa, XIa, plasmin and kallikrein) were measured after a new immobilization of Ir-CPI. In experiments to determine the binding kinetics, the quantity of immobilized Ir-CPI was deliberately kept at a low level (approximately 200 RU) in order to avoid problems where the reaction rate is limited by mass-transport. […] Interaction kinetics were determined for each analyte, at 6 different concentrations (from 5 nM to 300 nM). The kinetic data obtained were individually processed with BIA evaluation software in order to determine the kinetics constants.
# [2] = target: t-PA (UniProt P00750 36-562); test: as above
# t-PA, sequence (P00750 36-562 limits assumed): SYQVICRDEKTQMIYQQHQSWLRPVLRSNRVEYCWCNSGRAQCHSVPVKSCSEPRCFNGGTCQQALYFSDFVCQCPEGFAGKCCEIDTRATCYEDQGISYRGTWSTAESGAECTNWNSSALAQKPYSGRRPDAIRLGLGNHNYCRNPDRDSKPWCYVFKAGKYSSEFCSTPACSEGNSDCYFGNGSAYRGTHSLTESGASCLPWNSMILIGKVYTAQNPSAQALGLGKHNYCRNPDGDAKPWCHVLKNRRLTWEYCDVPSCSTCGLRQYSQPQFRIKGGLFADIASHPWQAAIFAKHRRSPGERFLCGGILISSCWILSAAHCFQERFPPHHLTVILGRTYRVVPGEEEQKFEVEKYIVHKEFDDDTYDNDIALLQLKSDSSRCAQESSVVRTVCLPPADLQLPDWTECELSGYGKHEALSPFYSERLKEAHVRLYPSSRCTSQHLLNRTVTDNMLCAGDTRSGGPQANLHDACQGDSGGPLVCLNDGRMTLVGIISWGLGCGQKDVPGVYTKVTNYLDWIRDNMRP
# Procedure: as §1, §2
# [3] = target: T3, factor IX (UniProt P00740 47-461); test: as above
# T3 construct: also called fIX
# Procedure: as §1, §2
# [4] = target: T1, factor VIIa; test: as above
# Procedure: as §1, §2
# [5] = target: T2, high molecular weight kininogen; test: as above
# Procedure: as §1, §2
# [6] = target: thrombin (UniProt P00734 328-622); test: as above
# Procedure: as §1, §2
# [7] = target: T4, factor X (UniProt P00742 41-488); test: as above
# T4 construct: also called fX
# Procedure: as §1, §2
# [8] = target: T5, factor IXa (UniProt P00740 47-191; P00740 227-461); test: as above
# T5 construct: read as fIXa; also called FIXa
# Procedure: as §1, §2
# [9] = target: T6, kallikrein (UniProt P03952 20-638); test: SPR kinetics (BIAcore 3000), Ir-CPI immobilized at about 200 RU, analyte at 6 concentrations from 5 nM to 300 nM
# T6 construct: also called plasma kallikrein
# T6 sequence (P03952 20-638 limits assumed): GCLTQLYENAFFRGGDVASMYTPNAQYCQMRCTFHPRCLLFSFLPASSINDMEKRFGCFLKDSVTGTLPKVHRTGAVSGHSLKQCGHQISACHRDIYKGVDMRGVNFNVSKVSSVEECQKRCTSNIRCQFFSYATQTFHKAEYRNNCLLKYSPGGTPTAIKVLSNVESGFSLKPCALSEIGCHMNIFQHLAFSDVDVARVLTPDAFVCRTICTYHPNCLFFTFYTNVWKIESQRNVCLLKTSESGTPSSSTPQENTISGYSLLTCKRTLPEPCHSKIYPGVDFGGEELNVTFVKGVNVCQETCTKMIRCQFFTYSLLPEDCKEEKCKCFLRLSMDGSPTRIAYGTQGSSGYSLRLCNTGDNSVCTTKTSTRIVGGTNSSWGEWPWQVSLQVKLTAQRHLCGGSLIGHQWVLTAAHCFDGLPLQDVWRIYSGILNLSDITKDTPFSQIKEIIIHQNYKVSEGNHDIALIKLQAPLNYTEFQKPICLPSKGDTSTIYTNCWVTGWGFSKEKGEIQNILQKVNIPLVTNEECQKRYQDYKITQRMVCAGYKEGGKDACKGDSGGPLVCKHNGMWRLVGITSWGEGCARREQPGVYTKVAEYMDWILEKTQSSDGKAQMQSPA
# Procedure: Interaction kinetics were determined, for each analyte, with 6 different concentrations (from 5 nM to 300 nM). Binding data were analyzed using BIA evaluation software to determine the kinetic constants.
# as §2, with “constants. […] FIG. 9 represents sensorgrams for interactions between coagulation factors and immobilized Ir-CPI measured by surface plasmon resonance. Ir-CPI was immobilized onto the surface of a sensor chip CM5 at level of 1500 resonance units (RUs). Contact factors (100 nM final concentration) were injected at a flow rate of 70 μl/min in HBS buffer, and association was monitored. After return to buffer flow, dissociation was monitored during 84 s. […]” for “constants.”
binder,measurement,setting,value
B1,binding result,[1],no binding (tested: 100 nM)
same,binding result,[2],no binding (tested: 100 nM)
same,binding result,[3],no binding (tested: 100 nM)
same,binding result,[4],no binding (tested: 100 nM)
same,binding result,[5],no binding (tested: 100 nM)
same,binding result,[6],no binding (tested: 100 nM)
same,binding result,[7],no binding (tested: 100 nM)
same,binding result,[8],no binding (tested: 100 nM)
same,Kd,[9],200 nM
